Assay results as given in PMC4465127.

Target: LIN-3^EGF (the purified EGF domain from LIN-3) (C. elegans)
Test: SPR; Biacore 3000; LIN-3 amine-coupled on CM5 chip, sLET-23 injected; steady state, single-site model; 10 mM Hepes pH 8.0, 150 mM NaCl, 3 mM EDTA, 0.005% P-20, room temperature

B1: LET-23 extracellular region (sLET-23) (domain or fragment)
chain: FGNSNAQLWKRCVSPQDCLCSGTTNGISRYGTGNILEDLETMYRGCRRVYGNLEITWIEANEIKKWRESTNSTVDPKNEDSPLKSINFFDNLEEIRGSLIIYRANIQKISFPRLRVIYGDEVFHDNALYIHKNDKVHEVVMRELRVIRNGSVTIQDNPKMCYIGDKIDWKELLYDPDVQKVETTNSHQHCYQNGKSMAKCHESCNDKCWGSGDNDCQRVYRSVCPKSCSQCFYSNSTSSYECCDSACLGGCTGHGPKNCIACSKYELDGICIETCPSRKIFNHKTGRLVFNPDGRYQNGNHCVKECPPELLIENDVCVRHCSDGHHYDATKDVRECEKCRSSSCPKICTVDGHLTNETLKNLEGCEQIDGHLIIEHAFTYEQLKVLETVKIVSEYITIVQQNFYDLKFLKNLQIIEGRKLHNVRWALAIYQCDDLEELSLNSLKLIKTGAVLIMKNHRLCYVSKIDWSSIITSKGKDNKPSLAIAENRDSKLCETEQRVCDKNCNKRGCWGKEPEDCLECKTWKSVGTCVEKCDTKGFLRNQTSMKCERCSPECETCNGLGELDCLTCRHKTLYNSDFGNRMECVHDCPVSHFPTQKNVCEKCHPTCYDNGCTGPDSNLGYGGCKQCKYAVKYENDTIFCLQSSGMNNVCVENDLPNYYISTYDTEGVIETHCEKCSISCKTCSSAGRNVVQNKCVCKHVEYQPNPSERICMDQCPVNSFMVPDTNNTVCKKCHHECDQNYHCANGQSTGCQKCKNFTVFKGDIAQCVSECPKNLPFSNPANGECLDYDIASRQRKTRM
B1 was tested, and the Kd was 2 to 4 µM.
